The data set in a line: soluble on expression in E. coli; label from the status in PepcDB or PDB records.
Consider “MSLLLEPSAAMIKEQKLYREMGLTDEEFARIEAILGRLPNYTETGIFAVMWSEHCSYKNSKPVLKKFPTDGPHVLQGPGEGAGIVDIGDGLAVAFKIESHNHPSAIEPYQGAATGVGGIIRDVFSMGARPIALLNSLRFGELTSPRVKYLFEQVVAGIAGYGNCVGIPTVGGEVQFDPAYEGNPLVNAMCVGIIRHEDIQRGVATGVGNTVMYVGAKTGRDGIHGATFASEELSEQSEAKRPAVQVGDPFMEKLLLEACLEAVKSDALVGIQDMGAAGLTSSSAEMASKGGFGIEMNLDLVPQREAGMTPYEMMLSESQERMLLVVKQGCEDEIAAIFAKYGLEAKAIGKVTDDKMLRLFFRGEVAAEIPVDALAKDAPVYHKPSAEPAYYREFQAMPPYIPHIEDYNQTLLGLLAQPTIASKEWVYDQYDYMVRTNTVVAPGSDAAVVRIRGTNKALALTTDCNSRYLYLDPETGGKIAVAEAARNVVCSGAKPLAITDCLNFGSPEKPEIFWQLEKAVDGMSEACRALGTPVVSGNVSLYNETNGEAVYPTPVVGMVGLIDDLSHITTQSFKQAGDLIYVIGEAKPEFGGSELQKWLEGRIFGKAPEIDLEVEASRQRQLLAAIRAGVVASAHDIAEGGLAVALAECVMGASGLGAKVTIGGDLVSELFSETQSRFVVSVKKEQKEAFEQLVEAKQIGEVTDDGAFVVNGEHGETLIHLSVAKMRNVWKGAIPCLLKSKD”, for which the “soluble on expression in E. coli” value is listed as “not soluble”.
To “MSLLQRDLVNTTGFLRMIMEHNYEKFASVYDAVMDDSLYDLWTDFSLRHLPKSKGRNRLLELACGTGIQSVRFAQAGFDVTGLDLSQDMLAIAKKRAQSAKKKIDFIQGNMLDLSQVGQFDFVTCYSDSICYMQDEVDVGDVFKEVYDVLANDGIFIFDVHSTYQTDECFPGYSYHENADDFAMVWDTYADEAPHSVVHELTFFIQEDDGRFSRFDEVHEERTYELLTYDILLEQAGFKSFKVYADFEDKEPTKTSKRWFFVAYKEGHHHHHH” belongs “soluble”.
Take “MSLLQTKPYTFWFITGSQHLYGEDAIEQVRQHSQTMVEKLNKIGELPYTIELKEVLTTPDAIRKMVIAANSDDDCAGMITWMHTFSPAKMWINGLKQLKKPLLHLHTQFNREIPYDDIDMDFMNLNQSAHGDREYGHIGARLNISRKVIVGHWQNNDVQERLGAWMRTAAAFVDGHHLKVARFGDNMREVAVTEGDKVEAQIQFGWSITAFGIGDLVEKMKAVSEDEVRRLFDEYQELYRLSPSILEQDEVKAAVLEQAKMELALKEFLEEGGYTAFTTNFEDLHGMKQLPGLAVQRLMAEGYGFGGEGDWKTAALLRMMKIIADGKGTSFMEDYTYHLAEGNELVLGSHMLEICPTIAANQPEIQVHPLGIGGKEDPARLVFDGADGPALNASLIDLGHRFRLVVNEVEAIKPERDMPKLPVAKVLWKCKPSLSEATEAWIHAGGAHHTVFSFEVTPEQLYDWATLADIEVVFINDKTDVLQFQQQLQWNEAFRRLFKEGHHHHHH”: the “soluble on expression in E. coli” value is “soluble”.
To “MSLLRFGIISTAKIAQDHVIPAIQDAENCVVSAIASRDHARARAVAERFSVPHAFGSYEEMLASDVIDAVYIPLPTAQHVEWTIKAANAGKHVLCEKPIALKAEEIDTLIAARDRNGVIVSEAFMVTYSPVWAKVKELLASGAIGTLKHVQGAFSYFNRDPGNMRNIPELGGGALPDIGVYPTIVTRFATGAEPRRVQATVERDREFGTDIYSSVRADFGTFELSFYLATQLASRQLMVFHGTDGYIEVKSPFNANRWGAEEIELTNQAHNQSQVFRFQDSRQYKLEAEAFARAVRGEGEVVTLENSRKNQLFIDAIYRAAEKDGWETVEGHHHHHH” belongs “soluble”.
On to “MSLLSGDETLTVYLARVLSCPELFRVSTPEEARRIAEKILSGEIEPPLEFFGLRRDAVNEVLAVTDGPAGENVAPVGLRVRGDSIVVNLYPGSRTYENFVRTEELTACIVPDPIRFLKALSKELAIETVGDGTKVAEGTRAYLELEAKEIHEGKPLTAELQVVGWGLLHPRPRALVRGESALLEALVELTRIHLDEDHVDACKRALEVVKRTIWSEEYQWAVEKVERELRGKEDGPDHQDTSPRIRRATGEGHHHHHH”, for which the “soluble on expression in E. coli” value is “soluble”.
In the case of “MSLLTVVQDQQSSNDDSGVGRSLLDEIVRDGARQMLAAALAAEVAAYIEQFAEHLDEHGRRLVVRNGYHHERDVLTAAGAVTVTAPRVNDRRVDAETGERQRFSSAILPAWSRKSPQMTEVLPLLYLHGLSSGDFSAALEQFLGTGAGLSASKITRLTAQWQDEAKAFADRDLSGTDFVYLWVDGIHLKVRLEQQKLCLLVMIGVRADGRKELVALTDGFRESTESWADLLRSCRRRGMTAPVLAVGDEALGFWKALREVFPDTREQRCWFHKQANVLAALPKSAHPGATAAMREIYNAEDIDKAQVAIKAFEVDYGAKYPKAVAKIVDDADVLLEFYRYPAEHWIHLRTTNPIESTFATVRLRTKVTKGPGSRAAGIAMAYKLIDAAQARWRAVNAPHLVALVRAGAVFHKGKLLEREGHHHHHH”, the “soluble on expression in E. coli” value was “not soluble”.
To “MSLLYTTPRLNISAFLFMKQQLSFLFLLSGLLAGCSSTPNPNLEQINQFTGGKTIGDATSFYWYTESFQKPSSASDYVTSGDYGSYQTSYRWEEGQVREIRREGEHLDGKKLVPFRVHIRFSKEGEAVYQQYRLGGKVLPMNEEQLAHYVLQAKAVAEATKEQDKQGLELIQGYWNGKTFETCQGVEYQRVEFNQSLPSFVFNRLASIESYVAFLGKIRNGKVHIDELLLLDDAGHDCVKEPELLDEGHHHHHH” belongs “soluble”; to “MSLMFHVVDDSEMLREMLVDMIEIYDCNVMTFASASEYLEYVRSDAFKAPSAVLTDVHMPQMSGYEMMEQVLAIDPSIRFAILSGEPDIPARYQDKVCLFLGKPYTGDQIQNMIYIFKQCELNSASEGHHHHHH”, “soluble”.
To “MSLMHTRYFTPSAQWIVQQLWPETLRFAKIEYLYPFKLRLSGVQIASEPTIELQQMDLWLNPYGLLEQQLEIDSVLIDGANLAHGLPNFTLPESVHLNQLALHNIDWADQGIIARGVSLQIKQPVWDSPQQQLPYGKIQLAADQITIDGEAFNQVLVDANYQAQDSTVYGFSFNWRNSPISGQAEQYPQGWSLINVTLSRLNLNLDEWRHHSLWQTIAPSIYHINSLDLLNSQLTLNGVAWENLNLSVEDYDLRHSLWQQQQAYLSLNADSAQWLATQWVEPSAELTLTPQGIELDGHSQVWQGDVQVKGHITETSLNLAQLTITGVKWIAEQPQDLLPFSQPLPAWQNLQIEHLDINNLQMIQTVNRPFWQASGLNADGKNLQWVKESQWGFWQGQLSVTANSASYAGVLSTQGVLNMRSEQGVWQLTRAFLPLERGYVEAHAKWDLTSLSAPWQLSLDADSLPIGPLQSWFKLPFGLEALADISLTAQGIAGDRTMLAHSLDGQLQLNLRQGLLSLRSDNTLIIQPFELDDLAVSADRGRITITPTPLRGPNLNAQLGGSTDLLEPEQGQWQLTIQQAWADQCLGLSWDFQQAELVSQDCRSAPEGHHHHHH” belongs “soluble”; to “MSLMKCLLVSSVEGYSGKSGIIIALGLKLREMGYEVGYFKALGVNTVKVGDRAVEEDSLITAKILGVEEDVCPVVLDRPYIDFATSVDPVVLRKAVLDRFTEVSEGKDVVIVEGSQNYRTGVAVGIDDASVAKMLSAKVLLVGKYVNDFVVDEVLAAKSAFGTMLEKVVFNQVSGYKMSYIEGIARKVLNEAGLDIVGAIPRNPVLAGLSVEEIREAVSGEYLIEPREEKMVEQVVIGAMSPQSALRYLREARNAALVTGGDRSDLLLTALEMPNVRCLILTGNLEPVQLVLTKAEERGVPVILTGHDTLTAVSRLESVFGRTRIRGEPKVGIMRELFESHVNVKTIIEYLGLDEGHHHHHH”, “soluble”; to “MSLMLSHNPIVEPFALAHATIVTGDKAGTILRNMTIVVGADGRIEQVAPSIETSIPAEYHYLDGTGKIVMPGLINAHTHLFSQGKPLNPKLATPKGQRMVATFAHSPLGKPYMAATVKHNATTLLESGVTTIRTLGDVGYEVVTLRDQIDAGQILGPRILASGPLMAIPEGHGAPLIALTSGTPEEARTAVAQNLKAGVNAIKIAATGGVTDAQEIGEAGSPQMSVEQMRAICDEAHQYGVIVGAHAQSPEGVRRSLLAGVDTIEHGSVLDDELIGMFRHNPNALRGYSALIPTLSAGLPLTLLGQDVTGITDIQLENSKNVVGGMVSGARQAHEAGLMIGVGTDTGMTFVPQYATWRELELLVAYAGFSPAEALHAATAVNASILGVDAETGSLEVGKSADLLVLNANPLDDLRALEHPALVIAAGHPVWRPGPKRFADIDALLDEAYAEGHHHHHH”, “soluble”.
To “MSLMSKPQITIKDIARELGVSPSTVSRALKDNPDISQETRDAIHKYAREHNYKPNVLALNLRTSRSNTIGVIIPQLVHHFFSCVLSGIERTAAEAGYNILVAQSNEEYEREVKIVHSFLAARVCGVITSLAKDTSRYDHYQELLDNNIPIVFYDRICTGINTERVVVDDYAGSFAAVEYMIQTGCKRIFFYSAAPHLEISKNRRNGYMDAMKKYRIPVDQSMIKLCDSREKAIAITPALLERPDHPDGFFAINDETASGILYSCKLTGRKVPDEVSICGFTDGAIAQSTDPKLTTVEQHGEEVGKSTIRLLIDKLEGNDEGKSGNKIVRTNLVVRGTTKEGHHHHHH” belongs “soluble”; to “MSLMSVVKVGVNGFGTIGRRVALAITLQKDMKLVGVVKRTPDYAALYAASRGIPIYTPTAKEAEEFEKRGIKVGGTLRELLARVDVVVDATPEGQGAKNKPLYREAGVKQVYQGGEKPEVAEASFSTLCNYEESKGRGSLRVVSCNTTGLLRLICTLNREFGVESVRAVLVRRGADPKEVKKGPIDSIVLNPPTLPSHHAVDVRTVLPWLDIKTAAVAVPTTFMHMHHVTLKLAKPVEKREVLETLASAPRIMLVSSGDTGIKSTSQLVDAARLSRMGYDIPELVVFEESVAVDGREVMLFQAVHQESIVVPENIDAIRAVASSPLTLDETLKATDGSLGLRKTLW”, “soluble”.
Turning to “MSLNALKREDAANKKLGVLIYENVQPMDVIGPWEVFATWKTILDASIDMFLVAESSNEVCCANQISLKPHCEFNNSPQFDYLLVPGGAGRREQVNNPRLISFLKKQAQNTDYLLSVCTGAFLLHAAGLLTHHEATTYWRAMPELKSFEDVQLVEKRIVKSGKVWTTGGISSGIDLAFEFISTIAGNDVAGKIQLLFEYFPECKLYSQPAMVSELPSYYATKKDEAVLEMNLPDYIKEYFKKSEGHHHHHH”, the “soluble on expression in E. coli” value was “soluble”.
On to “MSLNCFISSYVRGNFYNRGRISAESLRASDDLIFLNVRPNKDGSLSFENPRIFENGKGVTSWEELIKSVRADVKGTKTKLRLGAASGEWKAMVADEAARVAFAKNIKKILEKNKLDGIDLDFEWAETEKEYEDYSLAILKMREVLGDKYVFSVSLHPVCYKISKEAIAAVDFISYQCYGPSPVRFPMEKYCSDIQMALAYGIPKEKLVAGVPFYGVTKDGSKKTEAYFSFVQDGLITGPAQNEVTYKGDVYVFDGQNNIRAKTRYAMDQQLKGMMSWDLATDMPLNDSRSLFKTMVEELGREGHHHHHH”, for which the “soluble on expression in E. coli” value was “soluble”.
To “MSLNGSRRIPQPIRWAMVGGGSQSQIGYIHRCAALRDNTFVLVAGAFDIDPIRGSAFGEQLGVDSERCYADYLSMFEQEARRADGIQAVSIATPNGTHYSITKAALEAGLHVVCEKPLCFTVEQAENLRELSHKHNRIVGVTYGYAGHQLIEQAREMIAAGELGDVRMVHMQFAHGFHSAPVEAQSQATQWRVDPRQAGPSYVLGDVGTHPLYLSEVMLPDLKIKRLMCSRQSFVASRAPLEDNAYTLMEYEGGAMGMVWSSAVNAGSMHGQKIRVIGSRASLEWWDERPNQLSFEVQGQPAQILERGMGYLHPNALIDDRIGGGHPEGLFEAWANLYYRFALAMDATDRSDTQALSAVRYPGIDAGVEGVRWVERCVLSADNDSIWVAYEGHHHHHH” belongs “soluble”.
